Experimental data from publication PMC3154542 (Growth Factors (Chur, Switzerland), 2011).

B1: recombinant human bone morphogenetic protein 13 (rhBMP13) (ligand, UniProt Q6KF10 336-455, looked up)
chain: TAFASRHGKRHGKKSRLRCSKKPLHVNFKELGWDDWIIAPLEYEAYHCEGVCDFPLRSHLEPTNHAIIQTLMNSMDPGSTPPSCCVPTKLTPISILYIDAGNNVVYKQYEDMVVESCGCR
notes: bone morphogenetic protein 13 (BMP13, also known as GDF6), human, mature form; homodimer by non-reducing SDS-PAGE
B2: recombinant human bone morphogenetic protein 2 (rhBMP2) (ligand, UniProt P12643 283-396, looked up)
chain: QAKHKQRKRLKSSCKRHPLYVDFSDVGWNDWIVAPPGYHAFYCHGECPFPLADHLNSTNHAIVQTLVNSVNSKIPKACCVPTELSAISMLYLDENEKVVLKNYQDMVVEGCGCR
notes: bone morphogenetic protein 2, human, mature domain; homodimer by non-reducing SDS-PAGE; source: CHO cells, purified (as in Wang et al. 1990)
B3: BMPRII (BMP receptor 2 extracellular domain linked to the human IgG Fc region) (Fc fusion, UniProt Q13873 27-150, looked up)
chain: SQNQERLCAFKDPYQQDLGIGESRISHENGTILCSKGSTCYGLWEKSKGDINLVKQGCWSHIGDPQECHYEECVVTTTPPSIQNGTYRFCCCSTDLCNVNFTENFPPPDTTPLSPPHSFNRDET
notes: BMP receptor type 2 (BMPR2, BMPRII), type II receptor, extracellular domain; printed as 'BMPRII' without '-Fc' in the list of Fc fusion proteins; also called BMPR2; BMPR-2; source: synthesized in-house
B4: recombinant human bone morphogenetic protein 12 (rhBMP12) (ligand, UniProt Q7Z4P5 322-450, looked up)
chain: TALAGTRTAQGSGGGAGRGHGRRGRSRCSRKPLHVDFKELGWDDWIIAPLDYEAYHCEGLCDFPLRSHLEPTNHAIIQTLLNSMAPDAAPASCCVPARLSPISILYIDAANNVVYKQYEDMVVEACGCR
notes: bone morphogenetic protein 12 (BMP12, also known as GDF7), human, mature form; homodimer by non-reducing SDS-PAGE
B5: ALK6-Fc (activin receptor-like kinase 6 extracellular domain linked to the human IgG Fc region) (Fc fusion, UniProt O00238 14-126, looked up)
chain: KKEDGESTAPTPRPKVLRCKCHHHCPEDSVNNICSTDGYCFTMIEEDDSGLPVVTSGCLGLEGSDFQCRDTPIPHQRRSIECCTERNECNKDLHPTLPPLKNRDFVDGPIHHR
notes: activin receptor-like kinase 6 (ALK6), type I BMP receptor, extracellular domain; source: synthesized in-house
B6: ACVR2B-Fc (activin receptor type-2B extracellular domain linked to the human IgG Fc region) (Fc fusion, UniProt Q13705 19-137, looked up)
chain: SGRGEAETRECIYYNANWELERTNQSGLERCEGEQDKRLHCYASWRNSSGTIELVKKGCWLDDFNCYDRQECVATEENPQVYFCCCEGNFCNERFTHLPEAGGPEVTYEPPPTAPTLLT
notes: activin receptor type-2B (ACVR2B), type II receptor, extracellular domain; source: synthesized in-house

Tests used:
[1] = molecular target: the molecule itself; test: non-reducing SDS-PAGE; purified proteins on 12% polyacrylamide gels under non-reducing against reducing (β-mercaptoethanol) conditions, Coomassie blue staining
[2] = molecular target: T1, ALK3-Fc (activin receptor-like kinase 3 extracellular domain linked to the human IgG Fc region) (UniProt P36894 24-152); test: BLI; receptor extracellular domain-Fc chimeras immobilised on anti-human IgG Fc biosensor tips (ForteBio Octet RED); sixfold serial dilutions of human BMPs in solution; association 10 min, dissociation 30 min; global fit to a 1:1 Langmuir model; conditions: both partners purified
T1 construct: activin receptor-like kinase 3 (ALK3), type I BMP receptor, extracellular domain; source: bought: R&D Systems
T1 sequence (P36894 24-152): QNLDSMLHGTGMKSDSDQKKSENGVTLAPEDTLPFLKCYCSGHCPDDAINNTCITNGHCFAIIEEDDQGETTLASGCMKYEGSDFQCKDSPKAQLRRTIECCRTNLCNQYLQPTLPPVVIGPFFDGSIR

[3] = molecular target: B3; test: as above; conditions: both partners purified
[4] = molecular target: B4; test: as above; conditions: both partners purified
[5] = molecular target: B1; test: as above; conditions: both partners purified
[6] = molecular target: B2; test: as above; conditions: both partners purified

Kd [2] [nM] | koff [2] [s⁻¹] | kon [2] [M⁻¹ s⁻¹] | Kd [4] [nM] | koff [4] [s⁻¹] | kon [4] [M⁻¹ s⁻¹] | Kd [5] [nM] | koff [5] [s⁻¹] | kon [5] [M⁻¹ s⁻¹] | Binder | stoichiometry N [1] | other results
1.7 | 0.0084 | 4.97e+06 | – | – | – | – | – | – | B1 | 2 | Kd [3]: 28.1 nM; koff [3]: 0.16 s⁻¹; kon [3]: 5.7e+06 M⁻¹ s⁻¹
– | – | – | – | – | – | – | – | – | B2 | 2 | –
– | – | – | 52.1 | 0.322 | 9.26e+06 | – | – | – | B3 | – | –
3.4 | 0.0164 | 5.07e+06 | – | – | – | – | – | – | B4 | 2 | –
– | – | – | 0.6 | 0.004 | 6.48e+06 | 0.5 | 0.0038 | 7.69e+06 | B5 | – | Kd [6]: 1.6 nM; koff [6]: 0.0064 s⁻¹; kon [6]: 4.28e+06 M⁻¹ s⁻¹
– | – | – | 1 | 0.0138 | 1.29e+07 | 1.6 | 0.0041 | 2.59e+06 | B6 | – | –
